Measured values: patent US8563695B2, “Antibodies that bind β2” (Genentech, Inc., priority 2007, dated 2013)

Tests used:
SW620 cells [1] = experiment: Chemical inhibition of Notch signaling: E-cadherin staining of β2 ECD-treated SW620 cells; format: cell-based, human
Method: Vimentin and actin cytoskeleton (rhodamine-phalloidin): cells were fixed in 4% paraformaldehyde for 20 minutes at room temperature and permeabilzed with 0.05% saponin for 5 minutes at room temperature. For β2, REST, cleaved-Notch1 NICD and E-cadherin staining: cells were fixed in methanol at 4° C. for 2 minutes. Primary antibody incubation was at room temperature for 1 hour (for vimentin staining), or for 15 minutes (for rhodamine-phalloidin staining) or at 37° C. for 1 hour (for β2, REST, cleaved-Notch1 NICD and E-cadherin staining). Secondary antibody incubation was at room temperature for 30 minutes. […]
Images were converted from Photoshop format to Tif in Photoshop CS2 (version 9.0.2, Adobe; San Jose, Calif.). […] Typically, 5 independent regions were analyzed and combined for each analysis.
Activation of Notch signaling requires cleavage of the receptor by both an ADAM protease and gamma-secretase to release the Notch intracellular domain (NICD). […] SW620 cells were mixed with DMSO (vehicle control) or the specific gamma-secretase inhibitor DAPT (N—[N-(3,5-difluorophenylacetyl-L-alanine)]-S-phenylglycine t-butylester) at 500 nM in DMSO, treated with β2 ECD in conditioned media, and analyzed for loss of E-cadherin. […]

SW620 cells [2] = experiment: Stimulation of SW620 cells with Notch ligands (co-culture or plate-bound) for EMT induction; format: cell-based, human; conditions: exogenous ligand in trans by co-culture or plate-bound; data not shown
[3] = system: naïve CHO cells, MDCK cells, HUVEC (endothelial), or tumor cell lines NCI-H226, SW620, SW480, and PC-3; experiment: β2 ECD induced phenotype assay (actin cytoskeleton, morphology); format: cell-based; conditions: conditioned media containing β2 ECD, 48-72 hours
Method: (§1) Vimentin and actin cytoskeleton (rhodamine-phalloidin): cells were fixed in 4% paraformaldehyde for 20 minutes at room temperature and permeabilzed with 0.05% saponin for 5 minutes at room temperature. For β2, REST, cleaved-Notch1 NICD and E-cadherin staining: cells were fixed in methanol at 4° C. for 2 minutes. Primary antibody incubation was at room temperature for 1 hour (for vimentin staining), or for 15 minutes (for rhodamine-phalloidin staining) or at 37° C. for 1 hour (for β2, REST, cleaved-Notch1 NICD and E-cadherin staining). Secondary antibody incubation was at room temperature for 30 minutes. Antibodies used were as following: α-ankyrin monoclonal antibody (Chemincon International, Temecula, Calif.); α-vimentin monoclonal antibody (Sigma-Aldrich, St. Louis, Mo.); rhodamine-phalloidin (Molecular Probes, Eugene, Oreg.), α-REST polyclonal antibody (Upstate, Lake Placid, N.Y.), α-E-cadherin monoclonal antibody (Invitrogen, Carlsbad, Calif.), α-Notch1 (Val1744 peptide, detects both intact and cleaved Notch1 NICD) (Cell Signaling, Danvers, Mass.) or α-β2 monoclonal antibody (Genentech, Inc.). Secondary antibodies were as follows: Cy3-conjugated rabbit α-mouse IgG or Cy3-conjugated donkey α-rabbit IgG (Jackson Lab, Bar Harbor, Me.). Slides were mounted with Vectashield mounting media with DAPI (4′,6-diamidino-2-phenylindole) (Vector Lab, Burlingame, Calif.). […]

HEK293 cells = experiment: β2 ECD induced phenotype assay in HEK293; format: cell-based; conditions: HEK293, do not express Notch1; FIG. 11A
Method: as §1

SW620 cells [4] = experiment: Migration assay of SW620 cells treated with β2 ECD; format: cell-based, human; conditions: β2 ECD in conditioned media, 0.1% FBS, 18 hours; p=0.0009
Method: Migration assays were performed using the HTS FluoroBlock Multiwell insert system with […] (BD Biosciences, Bedford, Mass.). 10^5 cells/well were seeded into the upper wells and FBS was added to the bottom wells. After 18 hr, cells that migrated to the other side of the trans-well membrane were stained in 10 um YO-PRO-1 iodide (Invitrogen, Eugene, Oreg.) and quantitated using the fluorescence plate reader Spectra Max GeminiEM (Molecular Devices, Sunnyvale, Calif.).

CHO cells = experiment: Methotrexate resistance in CHO cells (trypan blue); format: cell-based, Chinese Hamster; conditions: 200 nM methotrexate for 48 hours; 60% of control-treated cells died; p=0.01
Method: Resistance to starvation: SW620 cells were seeded into 6 well plates at 25% confluence in complete media overnight. This media was replaced the next morning with media lacking FBS. For the assay, cells were detached using trypsin, washed, and stained in 0.4% Trypan Blue (Invitrogen, Carlsbad, Calif.). Total cells and dead cells were counted using a hemocytometer. Assays were performed in triplicate. Doxorubicin resistance: 2×10^4 SW620 cells were seeded in 96 well clear bottom black plates (Corning Inc., Corning, N.Y.) with serial dilutions of doxorubicin hydrochloride (Sigma-Aldrich, St. Louis, Mo.) and incubated for 5 days. Cell viability was measured by using Cell Titer Glo Luminescent Cell Viability Kit (Promega, Madison, Wis.). Luminescence was quantified using an Envision 2103 multilabel reader (PerkinElmer, Finland). Methotrexate resistance: 5×10^5 CHO cells were seeded in 6-well plates with β2 ECD in conditioned medium or control conditioned medium containing 200 nm methotrexate (Genentech Inc.). Cells were detached from the plate and stained with Trypan Blue 0.4% (Invitrogen, Carlsbad, Calif.) as described.

SW620 cells [5] = experiment: E-cadherin and vimentin staining of SW620 cells treated with β2 ECD; format: cell-based, human
Method: as §1

[6] = system: Twist1 and HES1 transcript; experiment: Transcript expression (microarray, RT-PCR) in SW620 cells treated with β2 ECD; format: cell-based, human
Method: HES1 and Twist1 transcript expression from 0-72 hours in SW620 cells treated β2 ECD in conditioned medium. RNA was extracted from cells at 0, 6, 18, 24, 48, and 72 hour timepoints and microarray analysis performed on Agilent Whole Human Genome microarrays versus a universal reference RNA. Log ratio (Y-axis) is plotted against time in hours (X-axis). Transcript data for 2 independent HES1 oligonucleotide probe sequences and for Twist1 are shown.
RT-PCR analysis of Twist1 transcript expression at 0, 6, and 18 hr timepoints in SW620 cells treated with β2 ECD. Twist1 expression was normalized to housekeeping gene RPL19.

[7] = molecular target: T1, Notch1 ECD (EGF repeats 6-36) (Homo sapiens, UniProt P46531); experiment: Direct binding of β2 ECD and Notch1 ECD (Ni-NTA pull-down, immunoblot); conditions: approximately 1 nM Notch1 ECD and 20 nM β2 ECD; vs control conditioned media with irrelevant histidine-tagged protein
T1 construct: Notch1 ECD region containing the majority of the EGF repeat region (repeats 6-36); FLAG (C)
Method: Immunoprecipitation: cells were removed from culture plates using 5 mm EDTA and lysed in TBS buffer containing 0.5% NP-40, EDTA-free protease inhibitor (Roche Diagnostics, Indianapolis, Ind.) and 1 mm PMSF. The cell lysate was incubated with pre-saturated protein G-agarose (Roche Diagnostics, Indianapolis, Ind.) at 4° C. for 1.5 hour followed by incubation with α-β2 monoclonal antibody at 4° C. for 2 hours. This cell lysate and antibody mixture was then incubated with pre-saturated protein G-agarose at 4° C. overnight. The agarose was collected and proteins were eluted in Tris-Glycine gel loading buffer (Invitrogen, Carlsbad, Calif.) for immunoblot analysis. Direct binding: conditioned media was collected as described above, incubated with FLAG-tagged Notch1 ECD:6-36 (5 μg) in 15 ml for 2 hours at room temperature with shaking 50 μl of Ni-NTA agarose bead slurry (Qiagen) was added with incubation for 2 hours at room temperature with shaking. Ni-NTA beads were collected by centrifugation and washed 3 times with PBS. Alternatively, conditioned media was treated with Ni-NTA beads to enrich for β2 and the resulting slurry incubated with Notch1 ECD:6-36 (5 μg) in 1 ml PBS and incubated and washed as described. Samples were eluted into 2× loading buffer. […]

[8] = molecular target: T2, Notch1 ECD fragment containing EGF repeats 10-21 (Homo sapiens, UniProt P46531); experiment: Direct binding of β2 ECD and Notch1 ECD fragment EGF 10-21; conditions: α-FLAG immunoblot
T2 construct: purified fragments of the Notch1 ECD, containing either EGF repeats 10-21 or 22-33; FLAG (C)

[9] = molecular target: T3, Notch1 ECD fragment containing EGF repeats 22-33 (Homo sapiens, UniProt P46531); experiment: Direct binding of β2 ECD and Notch1 ECD fragment EGF 22-33; conditions: α-FLAG immunoblot
T3 construct: purified fragments of the Notch1 ECD, containing either EGF repeats 10-21 or 22-33; FLAG (C)

Notch1 NICD = experiment: Translocation of Notch1 NICD to nucleus (confocal immunofluorescence); format: cell-based, human; conditions: SW620 cells 6 hours after treatment with β2 ECD in conditioned media; 100 um Lactacystin
Method: as §1, with “Inc.).” for “Inc.). Secondary antibodies were as follows: Cy3-conjugated rabbit α-mouse IgG or Cy3-conjugated donkey α-rabbit IgG (Jackson Lab, Bar Harbor, Me.). Slides were mounted with Vectashield mounting media with DAPI (4′,6-diamidino-2-phenylindole) (Vector Lab, Burlingame, Calif.).”
Activation of Notch1 by ligands results in cleavage to release the NICD, which translocates to the nucleus, and in concert with other proteins, directly regulates Notch target gene transcription. We analyzed whether nuclear NICD could be detected in cells in response to β2. […]

T3 sequence (P46531 829-1305): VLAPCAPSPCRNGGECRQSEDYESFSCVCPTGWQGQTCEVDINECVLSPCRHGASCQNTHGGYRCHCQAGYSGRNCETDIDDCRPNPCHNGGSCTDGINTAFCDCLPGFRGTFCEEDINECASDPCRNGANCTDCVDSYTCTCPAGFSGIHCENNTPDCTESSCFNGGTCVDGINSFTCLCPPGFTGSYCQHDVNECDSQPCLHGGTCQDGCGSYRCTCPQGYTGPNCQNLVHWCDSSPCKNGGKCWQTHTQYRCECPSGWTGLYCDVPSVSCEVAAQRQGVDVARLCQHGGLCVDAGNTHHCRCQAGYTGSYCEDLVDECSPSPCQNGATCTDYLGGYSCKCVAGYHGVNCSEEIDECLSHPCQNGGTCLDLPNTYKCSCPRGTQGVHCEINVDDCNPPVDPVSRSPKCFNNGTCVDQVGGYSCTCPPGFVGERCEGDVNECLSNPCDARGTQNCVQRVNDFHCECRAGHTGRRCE
T2 sequence (P46531 372-827 limits assumed): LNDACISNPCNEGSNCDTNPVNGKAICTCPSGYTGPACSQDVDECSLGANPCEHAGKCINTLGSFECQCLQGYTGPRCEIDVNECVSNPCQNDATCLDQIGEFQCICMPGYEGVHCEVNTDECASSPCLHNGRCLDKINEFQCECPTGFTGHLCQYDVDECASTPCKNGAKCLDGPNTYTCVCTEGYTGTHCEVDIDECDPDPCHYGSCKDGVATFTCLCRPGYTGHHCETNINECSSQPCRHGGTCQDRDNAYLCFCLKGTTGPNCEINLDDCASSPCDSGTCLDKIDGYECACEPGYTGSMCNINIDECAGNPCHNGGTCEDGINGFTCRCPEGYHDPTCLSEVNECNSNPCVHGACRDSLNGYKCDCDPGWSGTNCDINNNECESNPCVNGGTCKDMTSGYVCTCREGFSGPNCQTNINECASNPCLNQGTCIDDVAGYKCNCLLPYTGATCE
T1 sequence (P46531 218-1426 limits assumed): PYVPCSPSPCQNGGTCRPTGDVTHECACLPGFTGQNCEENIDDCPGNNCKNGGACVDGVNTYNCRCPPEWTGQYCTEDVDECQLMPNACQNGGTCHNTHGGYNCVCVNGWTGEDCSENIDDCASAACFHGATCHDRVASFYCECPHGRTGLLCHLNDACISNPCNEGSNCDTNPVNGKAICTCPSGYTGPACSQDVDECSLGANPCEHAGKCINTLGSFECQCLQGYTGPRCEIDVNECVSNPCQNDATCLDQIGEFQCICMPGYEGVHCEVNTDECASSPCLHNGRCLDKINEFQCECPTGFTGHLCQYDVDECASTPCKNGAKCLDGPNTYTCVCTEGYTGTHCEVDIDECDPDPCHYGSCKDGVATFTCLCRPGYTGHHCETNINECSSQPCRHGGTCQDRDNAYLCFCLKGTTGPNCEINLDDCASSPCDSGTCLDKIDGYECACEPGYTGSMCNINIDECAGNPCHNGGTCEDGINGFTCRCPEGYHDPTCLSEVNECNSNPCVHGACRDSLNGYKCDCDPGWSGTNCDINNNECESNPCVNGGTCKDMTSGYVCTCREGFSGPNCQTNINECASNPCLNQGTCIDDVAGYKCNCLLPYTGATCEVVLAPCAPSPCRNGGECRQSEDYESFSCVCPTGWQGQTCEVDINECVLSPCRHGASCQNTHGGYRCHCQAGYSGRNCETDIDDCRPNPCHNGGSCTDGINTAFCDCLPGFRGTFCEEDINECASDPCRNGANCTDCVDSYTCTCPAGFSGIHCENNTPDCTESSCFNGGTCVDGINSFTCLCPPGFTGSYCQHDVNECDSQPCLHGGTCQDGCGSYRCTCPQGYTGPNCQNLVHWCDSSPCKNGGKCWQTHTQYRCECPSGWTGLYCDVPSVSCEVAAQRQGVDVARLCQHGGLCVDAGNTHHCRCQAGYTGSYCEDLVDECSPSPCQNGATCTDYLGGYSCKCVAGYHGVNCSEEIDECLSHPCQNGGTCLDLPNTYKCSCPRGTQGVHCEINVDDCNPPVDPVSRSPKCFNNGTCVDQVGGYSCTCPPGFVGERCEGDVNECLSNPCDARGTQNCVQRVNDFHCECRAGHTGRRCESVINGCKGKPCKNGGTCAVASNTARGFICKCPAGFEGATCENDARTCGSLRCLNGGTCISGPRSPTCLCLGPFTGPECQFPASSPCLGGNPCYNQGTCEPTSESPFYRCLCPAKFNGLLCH

In the case of C[C@H](NC(=O)Cc1cc(F)cc(F)c1)C(=O)NC(C(=O)OC(C)(C)C)c1ccccc1 (stereo partly drawn) [DAPT, N—[N-(3,5-difluorophenylacetyl-L-alanine)]-S-phenylglycine t-butylester], the E-cadherin staining (SW620 cells [1]; DAPT 500 nM in DMSO, SW620 cells treated with β2 ECD in conditioned media) is reported as “remained E-cadherin positive” and the “E-cadherin levels, quantitative analysis of staining” value (SW620 cells [1]; DAPT-treated vs DMSO, β2-ECD treated cells, p=0.00001) is reported as “significantly different”.

With “Jagged1: Notch ligand of the Jagged family, added exogenously (co-culture or plate-bound)” the “Induction of EMT or related morphological change” value (SW620 cells [2]) was “no evidence of induction of EMT or related morphological change”.

B1: β2 ECD: C-terminal polyhistidine-tagged (HIS8) extracellular domain of β2 (SCN2B) secreted from CHO cells, used in conditioned media (protein)
chain: MEVTVPATLNVLNGSDARLPCTFNSCYTVNHKQFSLNWTYQECNNCSEEMFLQFRMKIINLKLERFQDRVEFSGNPSKYDVSVMLRNVQPEDEGIYNCYIMNPPDRHRGHGKIHLQVLMEEPPERDSTVAHHHHHHHH
With B1 the “Phenotypic changes (elongation, enlargement, actin cytoskeleton remodeling)” value [3] was “capable of inducing phenotypic changes”, the “Phenotypic change in response to β2” value (HEK293 cells) was “no phenotypic change” and the “Migration of SW620 cells across transwell membrane” value (SW620 cells [4]) was “significant increase in migration”. The “Cell death as percentage of total cells” value (CHO cells) was 10%, the “E-cadherin protein levels (immunofluoresence and FACS)” value (SW620 cells [5]; β2 ECD in conditioned media for 48 hours) was “greatly reduced E-cadherin protein levels” and the “Vimentin protein expression (immunofluorescent staining)” value (SW620 cells [5]; β2 ECD in conditioned media, from otherwise undetectable levels) was “substantial increase in vimentin protein expression”. For the same molecule, the Twist1 transcript expression ([6]; 6 hours after treatment with β2 ECD, oscillating at subsequent timepoints) was “induction of Twist1 transcript”, the HES1 transcript expression ([6]; at 6 hours after β2 ECD in conditioned media) was “elevated HES1 transcript” and the “Binding to FLAG-tagged Notch1 ECD (repeats 6-36)” value [7] was “recovery of tagged Notch1”. For the same molecule, the “Binding to Notch1 ECD fragment EGF repeats 10-21” value [8] was “specifically bound”, the “Binding to Notch1 ECD fragment EGF repeats 22-33” value [9] was “no detectable binding” and the “Nuclear Notch1 NICD staining” value (Notch1 NICD) was “nuclear NICD was detected”.
